Source: patent US20210180089A1, “NANOPARTICLES FOR TRANSFECTION” (LOXEGEN HOLDINGS PTY LTD, priority 2018, published 2021)
Ends that are not written are not given here.

Assay: Average particle diameter of peptide/DNA nanoparticles by ZetaPALS dynamic light scattering
Format: physicochemical
Method: The DNA was diluted to 50-100 ug/mL in 5mM HEPES pH 7.4. A peptide solution at a concentration of 100-180 ug/mL in 5 mM HEPES was prepared. A 250 uL volume of the DNA solution was transferred into a 2 mL Eppendorf tube. Using a 100 uL peptide, an equal volume of the peptide solution was titrated, at an appropriate rate to avoid aggregation, into the DNA solution while vortexing. The solution slowly turns translucent and no visible particles should occur. The particle size is measured using a dynamic light scattering (DLS) instrument (such as the Brookhaven ZetaPALS). The particle size should be below 100 nm, preferably below 80 nm. The nanoparticles were filtered through a 0.22 um sterile filter. The formulation was stored in a refrigerator (2-8 deg C.) until desired for use and/or for PEGylation. Where PEGylated peptide/DNA nanoparticles are required, a PEG-Zn solution was prepared in a separate tube at a concentration of about 400 mg/mL. 25-100 uL of the PEG solution was slowly added to 500 uL of the peptide/DNA nanoparticle preparation, depending on the degree of PEG-coating required. The particle size was measured by DLS. The particle size should be about 100-140 nm depending on the amount of PEG added. The formulation was store in a refrigerator (2-8 deg C.). Above describes a range for the peptide/DNA ratio which can be used in one embodiment. In a preferred example, the ratios used for nanoparticle preparation were: 100 ug/mL DNA and 100 ug/mL peptide mixed at equal volume. PEGylation: 50 uL of 440 mg/mL PEG-IDA-Zn into 500 uL nanoparticles as prepared above.

| Substance | Average Particle Diameter (via ZETA Pals particle size analysis) (GFP, PEG) | Average Particle Diameter (via ZETA Pals particle size analysis) (GFP, non-PEG) | Average Particle Diameter (via ZETA Pals particle size analysis) (luciferase, PEG) | Average Particle Diameter (via ZETA Pals particle size analysis) (luciferase, non-PEG) |
| --- | --- | --- | --- | --- |
| (H-Lys-His-Lys-His-Lys-His-Lys-His-Lys-His-Lys-His-Lys-His-Lys-His-Lys-His-His-Lys)4-Lys-Lys-Lys-His-His-His-His-Asn-His-His-His-His-OH (chain 1 H-KHKHKHKHKHKHKHKHKHHK; chain 2 KKKHHHHNHHHH-OH; also: four copies of chain 1 branched on core chain 2, attachment points not given here) [Peptide 2596, 1:1 Lys:His] | 124.1 nm (GFP, PEG) | 82.1 nm (GFP, non-PEG) | 77.4 nm (luciferase, PEG) | 64.3 nm (luciferase, non-PEG) |
| (H-Lys-His-Lys-His-His-Lys-His-His-Lys-His-His-Lys-His-His-Lys-His-His-Lys-His-Lys)4-Lys-Lys-Lys-His-His-His-His-Asn-His-His-His-His-OH (chain 1 H-KHKHHKHHKHHKHHKHHKHK; chain 2 KKKHHHHNHHHH-OH; also: four copies of chain 1 branched on core chain 2, attachment points not given here) [Peptide 2070, original peptide HK, 2:3 Lys:His, 4 branches] | 127.4 nm (GFP, PEG) | 66.0 nm (GFP, non-PEG) | 94.5 nm (luciferase, PEG) | 58.5 nm (luciferase, non-PEG) |
| (H-Lys-His-Lys-His-His-Lys-His-Lys-His-His-Lys-His-Lys-His-His-Lys-His-Lys-His-Lys)4-Lys-Lys-Lys-His-His-His-His-Asn-His-His-His-His-OH (chain 1 H-KHKHHKHKHHKHKHHKHKHK; chain 2 KKKHHHHNHHHH-OH; also: four copies of chain 1 branched on core chain 2, attachment points not given here) [Peptide 2597, 9:11 Lys:His] | 90.9 nm (GFP, PEG) | 54.7 nm (GFP, non-PEG) | 86.0 nm (luciferase, PEG) | 51.3 nm (luciferase, non-PEG) |
| (H-Orn-His-Orn-His-His-Orn-His-His-Orn-His-His-Orn-His-His-Orn-His-His-Orn-His-Orn)4-Lys-Lys-Lys-His-His-His-His-Asn-His-His-His-His-OH [Peptide 2595] | 101.3 nm (GFP, PEG) | 73.7 nm (GFP, non-PEG) | 70.9 nm (luciferase, PEG) | 65.9 nm (luciferase, non-PEG) |
